Variants at the floor of the assay were thinned out.
B1: TPR 5TU (parent)
chain: GGAUCUUCUCGAUCUAACAAAAAAGACAAAUCUGCCACAAAGCUUGAGAGCAUCUUCGGAUGCAGAGGCGGCAGCCUUCGGUGGCGCGAUAGCGCCAACGUUCUCAACUAUGACACGCAAAACGCGUGCUCCGUUGAAUGGAGUUUAUCAUG

Variants of: B1
Assay: polymerase ribozyme fitness, log enrichment relative to wild type (log ratio); higher = more active; in vitro selection for triplet polymerase activity
Summary of the method: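 A single round of triplicate in vitro selection, including frozen incubation at −7 °C, was applied to PCR-built, transcribed mutant libraries of each subunit of a heterodimeric triplet polymerase ribozyme. Illumina sequencing of input and output libraries retained genotypes with ≥10 input reads and ≥1 read per output. Fitness is the base-2 logarithm of genotype enrichment divided by wild-type enrichment, from inverse-variance-weighted replicate averages.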

Q: Which “polymerase ribozyme fitness (log ratio)” value does the source give for GGAUCUUCUCGAUCUAGCAAAAAAGACAAAUCUGCCACAAAGCUUGAGAGCAUCUUCGGAUGCAGAGGCGGCAGCCUUCGGUGGCGAGAUAGCGCCAACGUUUUCAACUAUGACACGCAAAACGCGUGCUCCGUUGAAUGGAGUUUAUCAUG here?
A: Its value is ≤ -4.2.

Q: Which “polymerase ribozyme fitness (log ratio)” value does the source give for GGAUCUUCUCGAUCUAGCAAAAAAGACAAAUCUGCCACAAAGCUUGAGAGCAUCUUCGGAUGCAGAGGCGGCAGCCUUCGGUGGCGCGAUAGCGCCAACGUUCUCAACUAUGACACGCAAAACGCGUGCUCCGUUGAAUGGAGUUUAUCAUG here?
A: Its value is 0.0905.

Q: With GGAUCUUCUCGAUCUACCAAAAAAGACAAAUCUGCCACAAAGCUUGAGAGCAUCAUCGGAUGCAGAGACGGCGGCCUUCGGUGGUGCGAUAGCGCCAACGUUCUCAACUAUGACACGCAAAACGCGAGCUCCGUUGAAUGUAGUUUAUCAUG as the variant, how does the “polymerase ribozyme fitness (log ratio)” value read?
A: The value was ≤ -4.2.

Q: Which “polymerase ribozyme fitness (log ratio)” value does the source give for GGAUCUUCUCGAUCUAGCAAAAAAGACUAAUUUGCCACUAAGCUUGAGAGCAUCUUAGGAUGCAGAGGCGGCAGCCUUCGGUGGCGCGAUAGCGACAACGUUCUCAACUGUGACACGCAAAACGCGUGCUCCGUUGAAUGGAGCUUGUCCUG here?
A: The value was ≤ -4.2.

Q: For GGAUCUUCUCGAUCUAGCAAAAAAGACAAAUCUGCCACAAAGCUUGAGAGCAUCUUCGGAUGCAGAGGGGGCAGCCUUCGGUGGGGCGAUAGCGCCAACGUUCUCACCUAUGACACGCAAAGCGCGUGCUCCGUUGAAUGGAGUUUAUCAUG, which “polymerase ribozyme fitness (log ratio)” value is on record?
A: The value was ≤ -4.2.

Q: For GGAUCUUCUCGAUCUAGCAAAAAAGCCAAAUCUGCCACAUAGCUUGCGAGCAUCUUCGAAUGCAGAGACGGCAGCCUUCGGUGGCGCGAUAGCGCCAACGUUCUCAACGAUGACAGGCCAAACGCGUGCUCCGUUGAAUGGAGUUUAUCAUG, which “polymerase ribozyme fitness (log ratio)” value is on record?
A: Its value is ≤ -4.2.

Q: With GGAUCUUCUCGAUCUAGUAAAAAAGACAAAUCUGCCACACAGCUUGAGAGCAUCUUCGGAUGCAGAGGCGGCAGCCUUCGGUGGCGCGAUAGCGCCAAGGUUCUCAACUAUGACACGCAAAACGCGUGCUCCGUUGAAUGGAGUUUAUCAUG as the variant, how does the “polymerase ribozyme fitness (log ratio)” value read?
A: Its value is -3.19.

Q: Which “polymerase ribozyme fitness (log ratio)” value does the source give for GGAUCUUCUCGAUCUAGCUAAAAAGACAAAUCUGCCACAAAGCUUGAGAGCAUCUUCGGAUGCAGAGGCGGCAGCCUUCGGUGGCGCGAUAGCGCCAACGUUCUCAACUAUGACACGCAAAACGCGUGCUCCGUUGAAUGGAGUUUAUCAUG here?
A: Its value is 0.00969.

Q: Which “polymerase ribozyme fitness (log ratio)” value does the source give for GGAUCUUCUCGAUCUAGGAAAAAAGACAAAUCUGCCACAAAGCUUGAGAGCAUCUUCGGAUGCGGAGGCGGCAGCCUUCGGUGGAGCGAUAGCGCCAACAUUCUCUACUAUGACACGCUAAACGCGUGCUCCGUUGAAUGGAGUUUAUCAUG here?
A: The value was ≤ -4.2.

Q: Which “polymerase ribozyme fitness (log ratio)” value does the source give for GGAUCUUCUCGAUCUAGCAUAAAAGACAAAUCUGCCGCAAAGCUUGAGAGCAGCUUCGGAUGCAGAGGCGGCAGCCUUCGGUGGCGCGAUAGCGCCAUCGUUCUCUACUAUGACACGCAAAACGCCUGCUCCGUUCAAUGGAUUUUAUCAUG here?
A: The value was ≤ -4.2.

Q: For GGAUCUUCUCGAUCUAGCAAAAAAGACAAAUCUGCCACAAAGCUUGAGAGUAUCUUCGGAUGCAGAGGCGGCAGCCUUCGGUGGCGCGAUAGCGCCAACGUUCUCGACUAUGACACGCACAUCGCGUGCUCCGUUGAAUGGAGUUUAUCAUG, which “polymerase ribozyme fitness (log ratio)” value is on record?
A: The value was -1.36.

Q: For GGAUCUUCUCGAUCUAGCAAAAAAGACAAAUCUGCCACAAAGCUUGAGAGCAUCUUCGGAUGCAGAGGCGGCAGCCUUCGGUGGGGCGAUAGCGCCAACGUUCUCAACUAUGACACGCAAAACGCGUGCUCCGUUGAAUGGAGUUUAUCAUG, which “polymerase ribozyme fitness (log ratio)” value is on record?
A: Its value is -1.33.

Q: For GGAUCUUCUCGAUCUAGCAAAAAAGACAUAUCUGCCACAAAACUUGAGAGCAUCUUCGGAUGCAGAGGCGGCAGCCUUCGGUGGCGUGAUAGCGCCAACUUUCUCAACUCUGACCCGCAGAACGCGUGCUCCGAUGAAUGGAGUUUAUCAUG, which “polymerase ribozyme fitness (log ratio)” value is on record?
A: The value was ≤ -4.2.

Q: For GGAUCUUCUCGAUCUAGCAAAAAAGACAAAUAUGCCACAAAGCUUGAGCGCAUCUUCGGAUGCAGAGGCGGCAGCCUUCGGUUGCGCGAUAGCGCCAACGUUCUCAGCUAUGACACGCAAAACGCGUGCUCCGUUGAAUGGAUUUUAUCAUG, which “polymerase ribozyme fitness (log ratio)” value is on record?
A: Its value is ≤ -4.2.

Q: Which “polymerase ribozyme fitness (log ratio)” value does the source give for GGAUCUUCUCGAUCUAGCAAAAAAGACAAAUCUGCCUCAAAGCUUGAGAGCAUCUUCGGAUGCAGAGGCGGCAGCCUUCGGUGGCGUGAUAGCGCCAAAGUUCUCAACUAUGACACGCAAAAUGCGUGCUCCGUUGAAUGGAGUUUAUCAUG here?
A: Its value is -3.98.

Q: For GGAUCUUCUCGAUCUAGCAAAAAAGACAAAUCUGCCAUAAAGCUUGAGAGCAUCUUAGGAUGAAGAGGCGGCAGCCUUCGGUGGCGCGAUAGCGCCAACGUUCUCAACUAUGACGCGCAAAACGCGUGCUCCGUUGAAUGGAGAUUAUCAUG, which “polymerase ribozyme fitness (log ratio)” value is on record?
A: Its value is -1.28.

Q: Which “polymerase ribozyme fitness (log ratio)” value does the source give for GGAUCUUCUCGAUCUAGCAAAAAAGACAAAUGUGCCACAAAGCUUGAGAGCAUCUUCGGAUGCAGAGGCGGCAGCUUUCGGUGGCGCGAUAGCGCCAACGUUCUCAACUAUGACACGCAAAACGCGUGCUCCGUUGAAUGGAGUUUAUCAUG here?
A: Its value is ≤ -4.2.

Q: With GGAUCUUCUCGAUCUAGCAAGAAAGACAAAUCUGCCACAAAGCUUGAGAGCAUCUUCGGAUGCAGAGGCGGCAGCCUUCGGUGGCGCGACAGCGCCAACGUUCUCAACUAUGACACGCAAAACGCGUGCUCCGUUGAAUGGAGUUUCUCUUG as the variant, how does the “polymerase ribozyme fitness (log ratio)” value read?
A: Its value is ≤ -4.2.

Q: For GGAUCUUCUCGAUCUAGCAAAAAUGACAAAUCUGCCCCAAUGCUUGAGAGCAUCUUCGGAUGCAGAGGCGGCAGCCUUCGGUGACGCGAUAGCGCCAACGCUCUAAACUAGGACACGUAAAACGCGUGCUCCGUUGAAUGGAGUUUAUCAUG, which “polymerase ribozyme fitness (log ratio)” value is on record?
A: Its value is ≤ -4.2.
